The text below walks through data of patent US7824885B2, “Engineered proteases for affinity purification and processing of fusion proteins” (University of Maryland, College Park, priority 2003, dated 2010).

The assay has as its target S160 (Bacillus amyloliquefaciens, UniProt P00782, DEL180-188/E263S/G190A/G235S/G273S/G276A/I138L/K150N/M157F/N319G/N325S/Q313C/Q378E/S116A/S295P/T361A/Y211A/Y324L). Briefly: inhibition of S160 by prodomain pR58. Format: biochemical.

Sequence of S160 (P00782 other isoform, or with tags, fused parts or gaps with the stated changes): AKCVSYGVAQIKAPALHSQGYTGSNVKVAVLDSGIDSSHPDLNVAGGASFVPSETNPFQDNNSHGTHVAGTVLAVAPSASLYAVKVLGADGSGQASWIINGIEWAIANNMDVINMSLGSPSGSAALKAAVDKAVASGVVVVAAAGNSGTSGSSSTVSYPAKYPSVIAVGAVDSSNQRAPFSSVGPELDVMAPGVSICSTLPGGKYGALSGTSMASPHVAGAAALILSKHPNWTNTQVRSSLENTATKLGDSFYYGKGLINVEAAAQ

B1: pR58: version of pR8 with its last four amino acids (AHAY) replaced with FRAM (protein)
chain: AGKSNGEKKYIVGFKSGIKSCAKKQDVISEKGGKLQKCFKYVDAASATLNEKAVKELKKDPSVAYVEEDKVFRAM
modifications: pR58 (pR8FRAM) variant of SEQ ID NO 2
notes: version of pR8 with its last four amino acids (AHAY) replaced with FRAM
The term Ki denotes a dissociation constant, usually derived from enzyme kinetics or from competition with a known ligand. The low end stands for tighter binding, the high end for weaker binding. For the molecule B1, the inhibitory constant (Ki) is about 30 pM.
